Data on 104 substances can be found in the supplement of paper PMC12042874.

± gives the uncertainty stated by the source.

A short description of this data set: amyloid nucleation score (Sup35N fusion, yeast selection) (log enrichment); library NNK1; higher = more nucleation; inactive = no reads after selection. The essentials: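 Output and input plasmid inserts were sequenced by Illumina after psi-negative yeast carrying Sup35N fused to peptides of 20 random codons had been induced 24 hours with 100 μM copper sulfate and grown 7 days at 30°C on medium lacking adenine and uracil. The nucleation score is the DiMSum log enrichment of output over input reads, centred on the mode score of non-aggregating sequences. Sequences with under 100 input reads were excluded.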
RPNLDWFLRLGFSYKCDDRR yielded an amyloid nucleation score of 4.56 ± 0.13.

SRMLPVMFSGP: the amyloid nucleation score was -1.06 ± 0.89. The result for RWDSRQGFSRASQVARRADS reads -0.391 ± 0.39; that for NEFEVCG, 0.108 ± 0.25. The result for APQSYVVVWFCVARKRCSWD reads -0.303 ± 0.53; that for FSCMRWM, 0.73 ± 0.43; that for IREFRRL, 0.313 ± 0.65.

Substance RITHWSGKLAFQTIVTISYL yielded an amyloid nucleation score of 1.53 ± 0.41. PSRNLVRVDPFLGIRQMVSS registered an amyloid nucleation score of -0.096 ± 1. Substance INMYWY registered an amyloid nucleation score of -0.031 ± 0.31. For TSSMCVFVSGNSEFVLWALE, the amyloid nucleation score was determined as 0.286 ± 0.51. The result for FSNTCWNLKYHSNGAANFFV reads 0.136 ± 0.96; that for EFGRGSNRVEFIMGASLALT, 1.09 ± 0.17. MIVILTGLLSTNGNLS had an amyloid nucleation score of 1.64 ± 0.39.

QERTMVLMLHMYYSGCAILM returned an amyloid nucleation score of 0.761 ± 0.56. CYASKMFWVVF returned an amyloid nucleation score of 2.06 ± 0.27. DVTAPRLQIGLKVKHMKPFF gave an amyloid nucleation score of 0.423 ± 0.42. WIHACK displayed an amyloid nucleation score of 0.778 ± 0.45. The substance QFHFMPWIDMSFSHLVHVYG displayed an amyloid nucleation score of -0.741 ± 0.29.

In the case of PMYWLPIFLS, the amyloid nucleation score result was “inactive”.

NMDGSVSCVCNILSFDYGGS yielded an amyloid nucleation score of 8.289 ± 0.077. HCSSFNILRMNDNE returned an amyloid nucleation score of 0.398 ± 0.23. For FYDLFNVNIGLGDFKSVCFL, the amyloid nucleation score was determined as 2.66 ± 0.2. The figure for SVFNGYQSLVICFLRVSACC is 0.154 ± 1. Regarding MCKVHIIEHCSLYWRSCGIW, the amyloid nucleation score result was “inactive”. The figure for MLCVGKA is -1.16 ± 0.64. The figure for IFSCGIGHWV is 0.462 ± 0.49. The result for WKRSEINDVFVM reads “inactive”; that for ANENLMNRYITNKRSCWCRW, -0.728 ± 0.48. AFDWSMSAKDQINEQTLNSV returned an amyloid nucleation score of 0.617 ± 0.28. With NLRFRRYTLVSGMQGNKIWH, the amyloid nucleation score was -0.234 ± 0.48.

For the substance YWRCCQVCRLRMDPQYFPDG, the amyloid nucleation score was -0.358 ± 0.69.

For the substance ENGLFKF, the amyloid nucleation score was 0.695 ± 0.32. With SLFPVTVRKDCCLT, the amyloid nucleation score is -0.434 ± 0.39. The figure for VCMISAQYYLDIMMGRCNVI is 0.468 ± 0.36. The figure for LGGAWLSNEDMVGYKNLH is 1.44 ± 0.41; for VLTWFDCYLICLYTRTSLRI it is 0.365 ± 0.41; for AIPRSVITRFLSCLAIEAWQ it is 0.627 ± 0.41. DEWLDPEASERRRGPGDWAL yielded an amyloid nucleation score of 0.55 ± 0.74.

As for DGDSLGCYWDASLARQCFGR, the amyloid nucleation score was -0.086 ± 0.29. AHRDWFS yielded an amyloid nucleation score of -0.553 ± 1.1. As for YNCYREGAWSITIRWIANRV, the amyloid nucleation score was 0.124 ± 0.34. The result for LISGVS reads “inactive”. The entry for NNKCWNIVRLVHRSLTLTRH is “inactive”; for FFCMKGKILIINALLEIDVG it is 0.079 ± 0.34. LVSVCLGCEVCIFVVYIPNP: the amyloid nucleation score entry is “inactive”. The result for TGNGRWVDFFRYRYGLKSRS reads “inactive”. The result for EVYCIDVGDLSVSGKFDRSL reads 1.54 ± 0.4; that for CCLGRR, -0.151 ± 0.52. The figure for SCRSRTYERCLSLVNMEREG is 3.27 ± 0.13; for SCFFKKMDMDT it is 0.436 ± 0.69; for ACFPLQVKDCYKCLGHLRAV it is 0.315 ± 0.29. Substance WIKLRLGFKRSFIPECGFLG returned an amyloid nucleation score of -0.208 ± 0.54. DFSRWIFMTHY showed an amyloid nucleation score of -1.06 ± 0.99.

For the substance VLNNLDLCSIRIVSKVSLFM, the amyloid nucleation score was determined as 6.88 ± 0.085. For the substance QDWHDYLYGKFIGNNYGKYI, the amyloid nucleation score came out at 1.44 ± 0.47. The result for VYVIIWSIILGRTVAGWMYY reads “inactive”. RYARWYTQCWTKQRVWRPLD came in with an amyloid nucleation score of 0.984 ± 0.3. The figure for VYSWNNYGDRKILMLFLTGY is 4.63 ± 0.065; for LYKEMTWRNWALSLKMSLRR it is 0.146 ± 0.5; for CSLVLAIRHATCQEVVVGSC it is 0.602 ± 0.6. The figure for AVDMTWYIVVSMLHMLDASV is 1.26 ± 0.76; for CPAWFFCIVKKYFKTVAQTV it is 0.291 ± 0.48; for KIDGRPVHIPRFRYDNDNKV it is -0.359 ± 0.47. On to LRSSVDLTRGESYNSGKFFN, for which the amyloid nucleation score is 0.435 ± 0.32.

VGDYFFGDDSIGGSRMHVSY came in with an amyloid nucleation score of 1.15 ± 0.65.

LFRLYTEITGRMRVTKVKVV returned an amyloid nucleation score of 0.641 ± 0.69.

For ILAVLVTYIANTACSWYYVF, the amyloid nucleation score stood at 0.052 ± 0.64. Turning to GAGLYCR, the amyloid nucleation score amounted to 0.376 ± 0.52. As for CDFAYRDWCHKMRYRYTRPC, the amyloid nucleation score was determined as 0.38 ± 0.39. Regarding GSSFI, the amyloid nucleation score turned out to be 0.127 ± 0.57. Turning to GCDCDQVLKYHARCMYVKDE, the amyloid nucleation score result is “inactive”.

For RWSVSINWTRSEEHDFRNCV, the amyloid nucleation score came to 1.37 ± 0.43. Take GGLVRSKFYFTL: the amyloid nucleation score came out at 0.19 ± 0.25.

For NLGTSYAWHDNGLFCIHCVS, the amyloid nucleation score was determined as 1.34 ± 0.84.

GTCFCFITVSLLLVPVVLSD yielded an amyloid nucleation score of -1.02 ± 2.7. Regarding SLPLTVVLYCHRYG, the amyloid nucleation score stood at 5.05 ± 0.064. On to TDLAHLSVSMFDNFSRELVL, for which the amyloid nucleation score is -0.323 ± 1.6. The result for TPCNVLGNSGPVWSWNP reads 0.166 ± 0.81; that for NTALMWVMMIVIWSVVSFTS, -0.8 ± 1.4; that for VFLVIVRYWCFFYHPVDTAN, “inactive”. The figure for VGNRSFNIFGTMCKMLQWTE is -0.715 ± 1.1. KKMIFTVVVECSKLWPLRVV: the amyloid nucleation score was 0.399 ± 0.69. The result for FHYYMSFSGDGI reads 0.724 ± 0.39. Take QELPFRRSYNLSNCSDNWHS: the amyloid nucleation score result was “inactive”. With VFPFPLGFDFKNHERKSVV, the amyloid nucleation score was -1.24 ± 0.58. FCSKTFL came in with an amyloid nucleation score of 1.35 ± 0.46. Turning to VFGIRFLI, the amyloid nucleation score was -1.54 ± 2.7. For KVCFPY, the amyloid nucleation score was -1.03 ± 0.4. For TTEHAK, the amyloid nucleation score was -0.263 ± 0.2. The figure for TFTSLNNVVYIDISDTSDKN is 3.81 ± 0.073. The result for IISRRCKML reads 1.37 ± 0.5; that for MIHEVTLY, 0.359 ± 0.41; that for FCLVMEFM, 0.606 ± 0.4. Take MLANSLFFT: the amyloid nucleation score was -1.23 ± 1.6. Substance QYCAKSVSFRWCHLSRWLMP displayed an amyloid nucleation score of 0.401 ± 0.71. In the case of CIFGHWAFFDCNCYILYVLY, the amyloid nucleation score is 2.27 ± 0.23. The substance SLRGQAHLQFSLRILSHSS had an amyloid nucleation score of 1.4 ± 0.24. The result for RLVLSGWNVTVNSILYQGFI reads 6.078 ± 0.06; that for DSNPNFCRLIKYVRNDCRTP, 0.012 ± 0.26. The result for HSLAGLGIIGRCAKLVQAQS reads 0.48 ± 0.25; that for PMMLDDTPKRSKQPHWIGGH, -0.584 ± 2.1; that for YGLFWN, -1.37 ± 1.5. The figure for FSKLWSVWLRLCLKG is 0.334 ± 0.52.
